Results from paper PMC6007404 (Nucleic Acids Research, 2018).

How the values were obtained:
MotA [1] = molecular target: T1, MotA (Enterobacteria phage T4, UniProt P22915 1-211); assay: EMSA; steep curve, value uncertain; EMSA: 0.01 pmol 32P-DNA, 1.7 pmol MotA, native 12% PAGE in 1x TBE at 4 C, other conditions as in ref 14; SPR: biotin-DNA on neutravidin chip, buffer as in ref 2
T1 sequence: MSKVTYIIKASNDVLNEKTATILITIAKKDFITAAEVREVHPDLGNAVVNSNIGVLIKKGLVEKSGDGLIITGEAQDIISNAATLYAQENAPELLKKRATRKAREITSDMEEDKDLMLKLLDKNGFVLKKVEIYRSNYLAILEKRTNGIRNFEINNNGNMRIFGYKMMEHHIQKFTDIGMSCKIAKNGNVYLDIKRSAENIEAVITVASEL

MotAlinker/CTD = molecular target: T2, MotAlinker/CTD (Enterobacteria phage T4, UniProt P22915 93-211); assay: X-ray crystallography; cognate complexes A and C; further non-cognate copies B and D on the opposite face; 2.96 A; EMSA: 0.01 pmol 32P-DNA, 1.7 pmol MotA, native 12% PAGE in 1x TBE at 4 C, other conditions as in ref 14; SPR: biotin-DNA on neutravidin chip, buffer as in ref 2
T2 sequence: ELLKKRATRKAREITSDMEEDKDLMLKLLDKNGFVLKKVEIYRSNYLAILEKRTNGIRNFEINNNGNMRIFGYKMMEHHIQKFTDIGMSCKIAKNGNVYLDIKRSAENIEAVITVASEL

MotA [2] = molecular target: T1, MotA; assay: EMSA; EMSA: 0.01 pmol 32P-DNA, 1.7 pmol MotA, native 12% PAGE in 1x TBE at 4 C, other conditions as in ref 14; SPR: biotin-DNA on neutravidin chip, buffer as in ref 2
[3] = molecular target: the molecule itself; assay: crystal structure; MotA^linker/CTD mixed with 22 bp MotA box DNA at 1.15:1 DNA:protein; 23% PEG 8000, 0.12 M sodium acetate, 0.1 M sodium cacodylate pH 6.5, 3% glycerol; space group P6_(1), 2.96 Å; four protein copies and two DNA duplexes in the asymmetric unit
MotA [4] = molecular target: T1, MotA; assay: competition; EMSA vs labeled N6; EMSA: 0.01 pmol 32P-DNA, 1.7 pmol MotA, native 12% PAGE in 1x TBE at 4 C, other conditions as in ref 14; SPR: biotin-DNA on neutravidin chip, buffer as in ref 2

B1: EMSA 19-mer GHMe/unmod (dsDNA)
DNA 1: AATTATTTGCTTTAGATTA
DNA 2: TAATCTAAAGCAAATAATT
modifications: beta-D-glucosyl-5-hydroxymethyl-dC at top C10
With B1 the Kd (MotA [1]) was roughly 20 nM.

B2: 22-mer MotA box DNA (crystal) (dsDNA)
DNA 1: GAAGCTTTGCTTAATAATCCAC
DNA 2: GTGGATTATTAAGCAAAGCTTC
B2: binds (MotAlinker/CTD).

B3: EMSA 19-mer unmodified (dsDNA)
DNA 1: AATTATTTGCTTTAGATTA
DNA 2: TAATCTAAAGCAAATAATT
Work on B3 yielded a Kd (MotA [2]) of roughly 140 nM.

B4: MotA^linker/CTD (C-terminal domain and linker region of MotA, amino acids 93-211) (domain or fragment, bacteriophage T4, UniProt P22915 93-211, looked up)
chain: ELLKKRATRKAREITSDMEEDKDLMLKLLDKNGFVLKKVEIYRSNYLAILEKRTNGIRNFEINNNGNMRIFGYKMMEHHIQKFTDIGMSCKIAKNGNVYLDIKRSAENIEAVITVASEL
B4: binds [3].

B5: EMSA mutant competitor (dsDNA)
DNA 1: AATTATTATACTTAGATTA
DNA 2: TAATCTAAGTATAATAATT
B5: no binding (MotA [4]).
